Reference: PMC2722759 (Nature cell biology, 2008)
Read-outs that look alike come from different tables or passages of the source.

Tests used:
Test in all cases: SPR
[1] = molecular target: Fc-tagged sFRP2 Fzl domain (mouse)
[2] = molecular target: T1, FLAG-tagged BMP1 (human, UniProt P13497-2 23-730)
T1 sequence (looked up): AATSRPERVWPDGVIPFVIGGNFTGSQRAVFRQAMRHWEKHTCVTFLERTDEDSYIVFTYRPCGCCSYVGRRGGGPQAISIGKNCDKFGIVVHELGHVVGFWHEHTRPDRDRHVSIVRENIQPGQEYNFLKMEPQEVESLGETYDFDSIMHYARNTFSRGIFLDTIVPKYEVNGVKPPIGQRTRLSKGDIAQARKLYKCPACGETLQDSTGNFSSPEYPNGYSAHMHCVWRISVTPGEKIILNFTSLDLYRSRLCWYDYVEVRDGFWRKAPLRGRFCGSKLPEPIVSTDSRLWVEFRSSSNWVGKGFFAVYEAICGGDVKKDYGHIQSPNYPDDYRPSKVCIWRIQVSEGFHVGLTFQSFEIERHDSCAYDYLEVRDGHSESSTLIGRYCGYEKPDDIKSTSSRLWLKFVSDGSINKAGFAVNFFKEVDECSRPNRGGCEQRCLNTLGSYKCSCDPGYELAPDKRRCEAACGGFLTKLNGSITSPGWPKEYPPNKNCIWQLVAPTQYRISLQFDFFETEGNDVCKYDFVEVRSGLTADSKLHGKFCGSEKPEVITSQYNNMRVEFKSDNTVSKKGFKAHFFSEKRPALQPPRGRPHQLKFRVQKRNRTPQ

[3] = molecular target: T1, FLAG-tagged BMP1; remark: listed apart in the source

FLAG-tagged BMP1 (from UniProt P13497-2 23-730) (enzyme)
Kd [1]: 8.68 nM

B1: His-tagged sFRP2 (natural protein, mouse, UniProt P97299 25-295, looked up)
chain: LFLFGQPDFSYKRSNCKPIPANLQLCHGIEYQNMRLPNLLGHETMKEVLEQAGAWIPLVMKQCHPDTKKFLCSLFAPVCLDDLDETIQPCHSLCVQVKDRCAPVMSAFGFPWPDMLECDRFPQDNDLCIPLASSDHLLPATEEAPKVCEACKTKNEDDNDIMETLCKNDFALKIKVKEITYINRDTKIILETKSKTIYKLNGVSERDLKKSVLWLKDSLQCTCEEMNDINAPYLVMGQKQGGELVITSVKRWQKGQREFKRISRSIRKLQC
Kd [2]: 7.13 nM

B2: full-length sFRP2-Fc (Fc fusion, mouse, UniProt P97299 25-295, looked up)
chain: B1 chain
Kd [3]: ~6.01 nM
